Data as given in patent publication US20220175944A1 (MAGENTA THERAPEUTICS, published 2022).

Tests used:
Test in all cases: cell-based or functional assay
[1] = biological target: Baboon CD117 on baboon CD34+ bone marrow cells (baboon)
[2] = biological target: T1, Human CD117 on Kasumi-1 cells or primary human CD34+ bone marrow cells (human, UniProt P10721 26-976)
[3] = biological target: T1, Human CD117 on Kasumi-1 cells or …; remark: listed apart in the source

T1 sequence (P10721 26-976 limits assumed): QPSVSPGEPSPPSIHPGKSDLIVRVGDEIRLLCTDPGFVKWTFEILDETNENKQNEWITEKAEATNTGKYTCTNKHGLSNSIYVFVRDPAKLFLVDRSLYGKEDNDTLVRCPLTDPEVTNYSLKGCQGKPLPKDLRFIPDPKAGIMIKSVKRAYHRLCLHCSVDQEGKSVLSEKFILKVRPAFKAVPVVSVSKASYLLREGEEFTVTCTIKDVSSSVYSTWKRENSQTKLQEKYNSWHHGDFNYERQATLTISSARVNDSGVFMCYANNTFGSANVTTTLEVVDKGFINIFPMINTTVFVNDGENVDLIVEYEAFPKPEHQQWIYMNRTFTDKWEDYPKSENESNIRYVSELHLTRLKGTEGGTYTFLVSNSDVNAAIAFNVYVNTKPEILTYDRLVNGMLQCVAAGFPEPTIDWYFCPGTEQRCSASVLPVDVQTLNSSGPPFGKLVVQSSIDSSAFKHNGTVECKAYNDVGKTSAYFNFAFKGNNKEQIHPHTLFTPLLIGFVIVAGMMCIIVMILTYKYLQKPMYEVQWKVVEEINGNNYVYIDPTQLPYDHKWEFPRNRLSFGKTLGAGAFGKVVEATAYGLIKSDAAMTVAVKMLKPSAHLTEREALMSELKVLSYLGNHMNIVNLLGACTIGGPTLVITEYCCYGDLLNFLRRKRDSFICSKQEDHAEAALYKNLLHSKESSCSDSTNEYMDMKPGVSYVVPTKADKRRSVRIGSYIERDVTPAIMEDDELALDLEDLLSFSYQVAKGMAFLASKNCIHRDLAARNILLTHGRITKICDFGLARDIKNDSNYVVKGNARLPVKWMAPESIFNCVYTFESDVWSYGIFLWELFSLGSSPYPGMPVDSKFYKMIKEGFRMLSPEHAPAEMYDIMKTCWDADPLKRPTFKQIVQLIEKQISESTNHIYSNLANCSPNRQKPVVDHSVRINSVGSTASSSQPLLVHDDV

B1: CK6 S239C-PBD (antibody, V domains shown)
VH: QVQLVQSGAAVKKPGESLKISCKGSGYRFTSYWIGWVRQMPGKGLEWMGIIYPGDSDTRYSPSFQGQVTISAGKSISTAYLQWSSLKASDTAMYYCARHGRGYNGYEGAFDIWGQGTMVTVSS
VL: AIQLTQSPSSLSASVGDRVTITCRASQGISSALAWYQQKPGKAPKLLIYDASSLESGVPSRFSGSGSGTDFTLTISSLQPEDFATYYCQQFNSYPLTFGGGTKVEIK
modifications: PBD (DNA cross linker) conjugated to the antibody, Fc modification S239C, DAR 1.7
IC50, killing of baboon CD34+ bone marrow cells (live cell counts by flow cytometry) [1]: 0.00066 nM | % Efficacy, in vitro Kasumi cell killing assay [2]: 60.7% | % Efficacy, in vitro hCD34 cell killing assay [3]: 97.3%

B2: CK6 S239C-D4 (calicheamicin) (antibody, V domains shown)
VH: QVQLVQSGAAVKKPGESLKISCKGSGYRFTSYWIGWVRQMPGKGLEWMGIIYPGDSDTRYSPSFQGQVTISAGKSISTAYLQWSSLKASDTAMYYCARHGRGYNGYEGAFDIWGQGTMVTVSS
VL: AIQLTQSPSSLSASVGDRVTITCRASQGISSALAWYQQKPGKAPKLLIYDASSLESGVPSRFSGSGSGTDFTLTISSLQPEDFATYYCQQFNSYPLTFGGGTKVEIK
modifications: calicheamicin (D4) conjugated to the antibody, Fc modification S239C, DAR 1.72
IC50, killing of baboon CD34+ bone marrow cells (live cell counts by flow cytometry) [1]: 14.6 nM | % Efficacy, in vitro Kasumi cell killing assay [2]: 0% | % Efficacy, in vitro hCD34 cell killing assay [3]: 52.3%

B3: CK6-SET0207 (Fc modification D265C H435A) (antibody, V domains shown)
VH: QVQLVQSGAAVKKPGESLKISCKGSGYRFTSYWIGWVRQMPGKGLEWMGIIYPGDSDTRYSPSFQGQVTISAGKSISTAYLQWSSLKASDTAMYYCARHGRGYNGYEGAFDIWGQGTMVTVSS
VL: AIQLTQSPSSLSASVGDRVTITCRASQGISSALAWYQQKPGKAPKLLIYDASSLESGVPSRFSGSGSGTDFTLTISSLQPEDFATYYCQQFNSYPLTFGGGTKVEIK
modifications: SET0207 payload ('Non-cleavable natural') conjugated to the antibody, Fc modification D265C H435A, DAR 2.0
% Efficacy, in vitro Kasumi cell killing assay [2]: 0% | % Efficacy, in vitro hCD34 cell killing assay [3]: 9.18%

B4: CK6 S239C-DM (duocarmycin) (antibody, V domains shown)
VH: QVQLVQSGAAVKKPGESLKISCKGSGYRFTSYWIGWVRQMPGKGLEWMGIIYPGDSDTRYSPSFQGQVTISAGKSISTAYLQWSSLKASDTAMYYCARHGRGYNGYEGAFDIWGQGTMVTVSS
VL: AIQLTQSPSSLSASVGDRVTITCRASQGISSALAWYQQKPGKAPKLLIYDASSLESGVPSRFSGSGSGTDFTLTISSLQPEDFATYYCQQFNSYPLTFGGGTKVEIK
modifications: duocarmycin (DM) conjugated to the antibody, Fc modification S239C, DAR 1.65
% Efficacy, in vitro Kasumi cell killing assay [2]: 0% | % Efficacy, in vitro hCD34 cell killing assay [3]: 66.2%

B5: CK6 S239C-PNU (antibody, V domains shown)
VH: QVQLVQSGAAVKKPGESLKISCKGSGYRFTSYWIGWVRQMPGKGLEWMGIIYPGDSDTRYSPSFQGQVTISAGKSISTAYLQWSSLKASDTAMYYCARHGRGYNGYEGAFDIWGQGTMVTVSS
VL: AIQLTQSPSSLSASVGDRVTITCRASQGISSALAWYQQKPGKAPKLLIYDASSLESGVPSRFSGSGSGTDFTLTISSLQPEDFATYYCQQFNSYPLTFGGGTKVEIK
modifications: PNU (DNA topoisomerase I/II inhibitor) conjugated to the antibody, Fc modification S239C, DAR 1.4
% Efficacy, in vitro Kasumi cell killing assay [2]: 85.7% | % Efficacy, in vitro hCD34 cell killing assay [3]: 74.4%
